From the supplement of paper PMC9112550, “Optimization of the antimicrobial peptide Bac7 by deep mutational scanning” (BMC Biology, 2022) come the findings set out here.
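Further: peptides expressed intracellularly from a pBAD plasmid library in pooled LB shake-flask culture, induced with 0.3% L-arabinose, DNA abundance read by NGS, three biological replicates, DESeq2 with apeglm shrinkage.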

This data set relates to Escherichia coli TOP10. Kind of data set: shrunken log2 fold change of peptide-encoding DNA abundance (4.5 h post-induction vs induction); higher = less antimicrobial activity (less host growth inhibition). As to conditions: time post-induction: 4.5 h; library: site-saturation at positions 5, 18, 19, 20.
As to RRIRDRPPRLPRPRPRPQQRPRP, the “shrunken log2 fold change” value is 0.147.

In the case of RRIRWRPPRLPRPRPRPTREPRP, the “shrunken log2 fold change” value worked out at 0.241.

With RRIRGRPPRLPRPRPRPPADPRP, the “shrunken log2 fold change” value was 1.59.

RRIRFRPPRLPRPRPRPEGAPRP: the “shrunken log2 fold change” value was 1.05.

In the case of RRIRTRPPRLPRPRPRPQREPRP, the “shrunken log2 fold change” value is -0.0725.

Turning to RRIRCRPPRLPRPRPRPLNVPRP, the “shrunken log2 fold change” value is -0.186.

On to RRIRVRPPRLPRPRPRPLPAPRP, for which the “shrunken log2 fold change” value turned out to be 0.449.

For RRIRRRPPRLPRPRPRPAVPPRP, the “shrunken log2 fold change” value is 0.146.

With RRIRVRPPRLPRPRPRPRGPPRP, the “shrunken log2 fold change” value was 0.946.

On to RRIRDRPPRLPRPRPRPFELPRP, for which the “shrunken log2 fold change” value was -0.0281.

Regarding RRIRIRPPRLPRPRPRPWRRPRP, the “shrunken log2 fold change” value was determined as 1.46.

Turning to RRIRHRPPRLPRPRPRPNSQPRP, the “shrunken log2 fold change” value is -0.346.

Regarding RRIRDRPPRLPRPRPRPQKPPRP, the “shrunken log2 fold change” value was -0.00349.

Take RRIRFRPPRLPRPRPRPDPMPRP: the “shrunken log2 fold change” value was -0.196.

Turning to RRIRRRPPRLPRPRPRPCVFPRP, the “shrunken log2 fold change” value turned out to be 0.022.

Regarding RRIRFRPPRLPRPRPRPISCPRP, the “shrunken log2 fold change” value was -0.038.

Consider RRIRMRPPRLPRPRPRPTCWPRP, for which the “shrunken log2 fold change” value worked out at 0.816.

Turning to RRIRLRPPRLPRPRPRPCIVPRP, the “shrunken log2 fold change” value was -0.641.

RRIRERPPRLPRPRPRPKQSPRP: the “shrunken log2 fold change” value was -0.0888.

For RRIRRRPPRLPRPRPRPFFTPRP, the “shrunken log2 fold change” value came to 0.501.

For RRIRVRPPRLPRPRPRPTWEPRP, the “shrunken log2 fold change” value amounted to 0.00966.

Take RRIRWRPPRLPRPRPRPFTVPRP: the “shrunken log2 fold change” value is -0.512.

Regarding RRIRFRPPRLPRPRPRPYNQPRP, the “shrunken log2 fold change” value was -0.881.

Regarding RRIRRRPPRLPRPRPRPNMRPRP, the “shrunken log2 fold change” value stood at 0.104.

For RRIRWRPPRLPRPRPRPDKHPRP, the “shrunken log2 fold change” value is -0.243.

As for RRIRMRPPRLPRPRPRPSGRPRP, the “shrunken log2 fold change” value came out at 0.556.

As for RRIRFRPPRLPRPRPRPDFIPRP, the “shrunken log2 fold change” value is -0.395.

Turning to RRIRSRPPRLPRPRPRPFDVPRP, the “shrunken log2 fold change” value was -0.151.

Take RRIRPRPPRLPRPRPRPTITPRP: the “shrunken log2 fold change” value is -0.347.

On to RRIRERPPRLPRPRPRPTSPPRP, for which the “shrunken log2 fold change” value is -0.185.

RRIRDRPPRLPRPRPRPMFHPRP: the “shrunken log2 fold change” value is -0.0543.

Take RRIRCRPPRLPRPRPRPMQPPRP: the “shrunken log2 fold change” value came to 0.462.

On to RRIRVRPPRLPRPRPRPLTVPRP, for which the “shrunken log2 fold change” value is 0.0473.

In the case of RRIRKRPPRLPRPRPRPTLNPRP, the “shrunken log2 fold change” value is 0.505.

RRIRWRPPRLPRPRPRPTYTPRP: the “shrunken log2 fold change” value is -0.136.

On to RRIRIRPPRLPRPRPRPCIIPRP, for which the “shrunken log2 fold change” value was -0.467.

Take RRIRTRPPRLPRPRPRPAWGPRP: the “shrunken log2 fold change” value was found to be 0.142.

With RRIRRRPPRLPRPRPRPQVRPRP, the “shrunken log2 fold change” value was -0.0161.

Consider RRIRPRPPRLPRPRPRPEMNPRP, for which the “shrunken log2 fold change” value is -0.381.

As to RRIRTRPPRLPRPRPRPSIVPRP, the “shrunken log2 fold change” value is -0.427.

Turning to RRIRMRPPRLPRPRPRPQLFPRP, the “shrunken log2 fold change” value stood at 0.0897.

For the sequence RRIRDRPPRLPRPRPRPLEQPRP, the “shrunken log2 fold change” value amounted to 0.57.

Consider RRIRFRPPRLPRPRPRPQQMPRP, for which the “shrunken log2 fold change” value is -0.0245.

Regarding RRIRDRPPRLPRPRPRPANTPRP, the “shrunken log2 fold change” value was -0.0443.

Regarding RRIRQRPPRLPRPRPRPWSFPRP, the “shrunken log2 fold change” value was -0.026.

Turning to RRIRERPPRLPRPRPRPKYKPRP, the “shrunken log2 fold change” value is -0.369.

For the sequence RRIRKRPPRLPRPRPRPWMNPRP, the “shrunken log2 fold change” value is -0.00146.

For RRIRHRPPRLPRPRPRPCGLPRP, the “shrunken log2 fold change” value was -0.0199.

In the case of RRIRTRPPRLPRPRPRPLMRPRP, the “shrunken log2 fold change” value was 0.216.

Turning to RRIRFRPPRLPRPRPRPTMRPRP, the “shrunken log2 fold change” value turned out to be 0.605.

Consider RRIRHRPPRLPRPRPRPDVYPRP, for which the “shrunken log2 fold change” value was 0.0592.

As for RRIRCRPPRLPRPRPRPYYHPRP, the “shrunken log2 fold change” value is -1.28.

Turning to RRIRLRPPRLPRPRPRPAGCPRP, the “shrunken log2 fold change” value is 0.263.

Regarding RRIRHRPPRLPRPRPRPMHHPRP, the “shrunken log2 fold change” value was -0.154.

For RRIRLRPPRLPRPRPRPQHQPRP, the “shrunken log2 fold change” value was -0.261.

As to RRIRERPPRLPRPRPRPWFRPRP, the “shrunken log2 fold change” value is -0.214.

As for RRIRGRPPRLPRPRPRPAHWPRP, the “shrunken log2 fold change” value was found to be 0.378.

Consider RRIRRRPPRLPRPRPRPSEHPRP, for which the “shrunken log2 fold change” value was 0.453.

As to RRIRWRPPRLPRPRPRPYTLPRP, the “shrunken log2 fold change” value was -0.681.

Consider RRIRSRPPRLPRPRPRPFRYPRP, for which the “shrunken log2 fold change” value was -0.822.

As for RRIRARPPRLPRPRPRPCVCPRP, the “shrunken log2 fold change” value is 0.301.

Take RRIRPRPPRLPRPRPRPLHAPRP: the “shrunken log2 fold change” value is 0.282.

In the case of RRIRDRPPRLPRPRPRPTMLPRP, the “shrunken log2 fold change” value was determined as 0.138.

Consider RRIRQRPPRLPRPRPRPYIAPRP, for which the “shrunken log2 fold change” value was 0.0259.

With RRIRRRPPRLPRPRPRPMMRPRP, the “shrunken log2 fold change” value is 0.73.

As for RRIRMRPPRLPRPRPRPMLAPRP, the “shrunken log2 fold change” value was 2.84.

As for RRIRHRPPRLPRPRPRPIAGPRP, the “shrunken log2 fold change” value turned out to be 0.0113.

RRIRMRPPRLPRPRPRPRANPRP: the “shrunken log2 fold change” value came out at 0.922.

Take RRIRWRPPRLPRPRPRPFWEPRP: the “shrunken log2 fold change” value turned out to be 0.121.

Consider RRIRNRPPRLPRPRPRPPETPRP, for which the “shrunken log2 fold change” value is 0.314.

Regarding RRIRCRPPRLPRPRPRPRNNPRP, the “shrunken log2 fold change” value is -0.282.

Consider RRIRWRPPRLPRPRPRPQAWPRP, for which the “shrunken log2 fold change” value amounted to 0.23.

RRIRFRPPRLPRPRPRPKEYPRP: the “shrunken log2 fold change” value was -0.468.

RRIRWRPPRLPRPRPRPGEGPRP: the “shrunken log2 fold change” value is 0.154.

On to RRIRQRPPRLPRPRPRPLLCPRP, for which the “shrunken log2 fold change” value is 0.126.

Consider RRIRVRPPRLPRPRPRPDTNPRP, for which the “shrunken log2 fold change” value is -0.479.

With RRIRGRPPRLPRPRPRPWADPRP, the “shrunken log2 fold change” value is 0.142.

RRIRFRPPRLPRPRPRPVDEPRP: the “shrunken log2 fold change” value was 0.0494.

On to RRIRLRPPRLPRPRPRPPISPRP, for which the “shrunken log2 fold change” value was determined as 0.0176.

With RRIRYRPPRLPRPRPRPVPAPRP, the “shrunken log2 fold change” value was -0.156.

Regarding RRIRERPPRLPRPRPRPQLWPRP, the “shrunken log2 fold change” value was 0.116.

Turning to RRIRSRPPRLPRPRPRPTALPRP, the “shrunken log2 fold change” value amounted to 0.14.

In the case of RRIRVRPPRLPRPRPRPADAPRP, the “shrunken log2 fold change” value was -0.183.

Regarding RRIRWRPPRLPRPRPRPIQDPRP, the “shrunken log2 fold change” value is 0.0265.

Consider RRIRWRPPRLPRPRPRPICRPRP, for which the “shrunken log2 fold change” value was -0.0371.

As for RRIRARPPRLPRPRPRPIPRPRP, the “shrunken log2 fold change” value is 0.526.

For the sequence RRIRGRPPRLPRPRPRPHSDPRP, the “shrunken log2 fold change” value was 0.204.

On to RRIRTRPPRLPRPRPRPKCWPRP, for which the “shrunken log2 fold change” value is 1.72.

Take RRIRMRPPRLPRPRPRPWWLPRP: the “shrunken log2 fold change” value came to 0.0657.

As to RRIRWRPPRLPRPRPRPVCPPRP, the “shrunken log2 fold change” value is 0.142.

In the case of RRIRARPPRLPRPRPRPYDFPRP, the “shrunken log2 fold change” value was -0.772.

On to RRIRTRPPRLPRPRPRPKLVPRP, for which the “shrunken log2 fold change” value came out at 0.016.

For the sequence RRIRRRPPRLPRPRPRPMHCPRP, the “shrunken log2 fold change” value came to 0.505.

With RRIRLRPPRLPRPRPRPGHVPRP, the “shrunken log2 fold change” value was 0.0522.

As to RRIRNRPPRLPRPRPRPEIYPRP, the “shrunken log2 fold change” value was -0.00989.

With RRIRWRPPRLPRPRPRPAWPPRP, the “shrunken log2 fold change” value amounted to 0.558.

RRIRLRPPRLPRPRPRPANMPRP: the “shrunken log2 fold change” value is -0.0319.

Turning to RRIRERPPRLPRPRPRPCDHPRP, the “shrunken log2 fold change” value was -0.0479.

For the sequence RRIRFRPPRLPRPRPRPINHPRP, the “shrunken log2 fold change” value is -0.511.

As to RRIRQRPPRLPRPRPRPLMGPRP, the “shrunken log2 fold change” value is -0.121.

Regarding RRIRPRPPRLPRPRPRPNMPPRP, the “shrunken log2 fold change” value was -0.405.

RRIRRRPPRLPRPRPRPVASPRP: the “shrunken log2 fold change” value turned out to be 0.0932.

With RRIRCRPPRLPRPRPRPQIKPRP, the “shrunken log2 fold change” value was -0.762.

Turning to RRIRVRPPRLPRPRPRPTMDPRP, the “shrunken log2 fold change” value was -0.116.

Consider RRIRFRPPRLPRPRPRPTGGPRP, for which the “shrunken log2 fold change” value came to 0.259.

On to RRIRKRPPRLPRPRPRPEAGPRP, for which the “shrunken log2 fold change” value worked out at 1.17.

For the sequence RRIRQRPPRLPRPRPRPVPHPRP, the “shrunken log2 fold change” value is -0.0417.

Consider RRIRKRPPRLPRPRPRPQEFPRP, for which the “shrunken log2 fold change” value is -0.0241.

Turning to RRIRDRPPRLPRPRPRPKRTPRP, the “shrunken log2 fold change” value amounted to 0.143.

Take RRIRGRPPRLPRPRPRPKIIPRP: the “shrunken log2 fold change” value worked out at 0.303.

As for RRIRWRPPRLPRPRPRPISAPRP, the “shrunken log2 fold change” value was -0.0163.

RRIRIRPPRLPRPRPRPFQVPRP: the “shrunken log2 fold change” value was found to be 0.0102.

For RRIRQRPPRLPRPRPRPYIDPRP, the “shrunken log2 fold change” value is -0.606.

Consider RRIRWRPPRLPRPRPRPVEDPRP, for which the “shrunken log2 fold change” value was determined as 0.00386.

Regarding RRIRLRPPRLPRPRPRPRDSPRP, the “shrunken log2 fold change” value was -0.00311.

As to RRIRHRPPRLPRPRPRPEYIPRP, the “shrunken log2 fold change” value was 0.00452.

RRIRFRPPRLPRPRPRPSSPPRP: the “shrunken log2 fold change” value is -0.284.

In the case of RRIRPRPPRLPRPRPRPPIAPRP, the “shrunken log2 fold change” value was found to be 0.27.

On to RRIRARPPRLPRPRPRPNHGPRP, for which the “shrunken log2 fold change” value is -0.0204.

As for RRIRRRPPRLPRPRPRPHVMPRP, the “shrunken log2 fold change” value is 1.55.

Consider RRIRGRPPRLPRPRPRPDTQPRP, for which the “shrunken log2 fold change” value worked out at 0.632.

Consider RRIRWRPPRLPRPRPRPVKEPRP, for which the “shrunken log2 fold change” value was -0.0992.

Turning to RRIRLRPPRLPRPRPRPCYYPRP, the “shrunken log2 fold change” value was -0.936.

As to RRIRMRPPRLPRPRPRPLLSPRP, the “shrunken log2 fold change” value came to 0.17.

For the sequence RRIRLRPPRLPRPRPRPHEHPRP, the “shrunken log2 fold change” value is -0.109.
